Assay results as given in US20060134740A1.
Values belong to the binder of their own block, whether it stands above or below them. The star is where a group is joined. AMC = Cc1cc(=O)oc2cc(N*)ccc12

Experiments:
[1] = biological target: fusion of the pR8 prodomain onto the N-terminus of the 56 amino acid B domain (GB) of streptococcal Protein G, P06654
[2] = biological target: subtilisin BPN' mutant S149 (Bacillus amyloliquefaciens) (UniProt P00782); assay: transient state kinetics with fluorogenic substrates
[3] = biological target: subtilisin BPN' mutant S149 (Bacillus amyloliquefaciens) (UniProt P00782); assay: transient state kinetics with fluorogenic substrate

B1: wild type subtilisin BPN' (protein)
chain: AQSVPYGVSQIKAPALHSQGYTGSNVKVAVIDSGIDSSHPDLKVAGGASMVPSETNPFQDNNSHGTHVAGTVAALNNSIGVLGVAPSASLYAVKVLGADGSGQYSWIINGIEWAIANNMDVINMSLGGPSGSAALKAAVDKAVASGVVVVAAAGNEGTSGSSSTVGYPGKYPSVIAVGAVDSSNQRASFSSVGPELDVMAPGVSIQSTLPGNKYGAYNGTSMASPHVAGAAALILSKHPNWTNTQVRSSLENTTTKLGDSFYYGKGLINVQAAAQ
- cleavage of the fusion protein [1]: The fusion protein was rapidly and specifically cleaved to release GB from pR8

- fold preference over sDVRAF-AMC [2]: 5 fold
- Ks [3]: 1 µM
B2: fluorogenic pentapeptide substrate sDFRAM-AMC (peptide)
peptide: {code s}-DFRAM-{AMC}

- Ks [3]: 5 µM
B3: fluorogenic substrate sDVRAF-AMC (peptide)
peptide: {code s}-DVRAF-{AMC}
